T1: GST-Rar1 (wild type) (Arabidopsis thaliana, UniProt Q9SE33 1-226)
T1 construct: Rar1, Arabidopsis thaliana, wild type; Construct details are in the Supplemental Information; also called Wild-type GST-Rar1; GST-tagged Rar1
T1 sequence (looked up): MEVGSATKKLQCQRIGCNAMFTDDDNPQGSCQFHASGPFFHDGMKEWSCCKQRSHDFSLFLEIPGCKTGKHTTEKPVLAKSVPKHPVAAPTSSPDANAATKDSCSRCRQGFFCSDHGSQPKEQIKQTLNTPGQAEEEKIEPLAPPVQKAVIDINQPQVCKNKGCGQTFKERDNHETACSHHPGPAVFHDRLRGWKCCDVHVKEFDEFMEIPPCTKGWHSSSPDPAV

B1: CHORDII domain of cress (Arabidopsis thaliana) Rar1 (domain or fragment)
chain: AVIDINQPQVCKNKGCGQTFKERDNHETACSHHPGPAVFHDRLRGWKCCDVHVKEFDEFMEIPPCTKGWHSSS
notes: Rar1, Arabidopsis thaliana, CHORDII domain; also called Rar1-CHORDII; isolated CHORDII
B2: CS domain of cress (Arabidopsis thaliana) Sgt1a (domain or fragment)
chain: AKYRHEYYQKPEEVVVTVFAKGIPKQNVNIDFGEQILSVVIEVPGEDAYYLQPRLFGKIIPDKCKYEVLSTKIEICLAKADIITWASLEHGK
notes: Sgt1a, Arabidopsis thaliana, CS domain; construct as described previously (Boter et al., 2007; Zhang et al., 2008); also called Sgt1-CS; Sgt-CS
B3: Rar1 (wild type, not GST-tagged) (natural protein, Arabidopsis thaliana, UniProt Q9SE33 1-226, looked up)
chain: T1 sequence (looked up)

Tests used:
[1] = target: B2; assay: ITC; Rar1-CHORDII with Sgt1-CS (Figure S2C); conditions not shown; conditions: both partners purified
[2] = target: T1, GST-Rar1 (wild type); assay: pull-down; GST-Rar1 as bait, Hsp90, untagged Rar1 and Sgt1-CS present; conditions: both partners purified
[3] = target: Hsp90 ( (Arabidopsis, H. vulgare or …, UniProt Q7XJ80 1-700)); assay: cell-based or functional assay
Chain of Hsp90 ( (Q7XJ80 entry or part of it): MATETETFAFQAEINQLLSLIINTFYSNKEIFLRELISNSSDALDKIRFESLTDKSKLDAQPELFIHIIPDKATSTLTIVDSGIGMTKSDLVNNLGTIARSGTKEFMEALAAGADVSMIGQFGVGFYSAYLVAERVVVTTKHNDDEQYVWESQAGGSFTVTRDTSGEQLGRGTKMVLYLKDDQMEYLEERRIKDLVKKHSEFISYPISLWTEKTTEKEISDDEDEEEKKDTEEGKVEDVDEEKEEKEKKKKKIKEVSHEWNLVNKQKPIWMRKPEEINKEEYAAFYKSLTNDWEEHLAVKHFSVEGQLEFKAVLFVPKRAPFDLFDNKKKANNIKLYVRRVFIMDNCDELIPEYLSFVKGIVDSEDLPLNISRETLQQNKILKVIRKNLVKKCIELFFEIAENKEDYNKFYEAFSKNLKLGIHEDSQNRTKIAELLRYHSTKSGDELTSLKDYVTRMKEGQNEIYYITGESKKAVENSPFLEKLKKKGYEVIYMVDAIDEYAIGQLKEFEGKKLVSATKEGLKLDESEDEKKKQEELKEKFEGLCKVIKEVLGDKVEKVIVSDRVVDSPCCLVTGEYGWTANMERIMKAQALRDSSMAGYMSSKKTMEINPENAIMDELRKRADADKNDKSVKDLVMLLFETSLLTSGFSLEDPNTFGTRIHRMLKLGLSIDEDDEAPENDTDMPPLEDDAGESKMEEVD

## B1
[1]
  Kd: 3.09 ± 0.15 µM

## B2
[2]
  binding result: binds

## B3
[3]
  ATP turnover of Ta-Hsp90 with increasing concentrations of Rar1 (up to 20-fold excess): 2 fold
